# Target: 6xHis-TrxA-BoNT/A2-HC (UniProt Q45894 871-1296)
# Experiment: pull-down
# Conditions: both partners purified
# Chain of 6xHis-TrxA-BoNT/A2-HC (Q45894 871-1296): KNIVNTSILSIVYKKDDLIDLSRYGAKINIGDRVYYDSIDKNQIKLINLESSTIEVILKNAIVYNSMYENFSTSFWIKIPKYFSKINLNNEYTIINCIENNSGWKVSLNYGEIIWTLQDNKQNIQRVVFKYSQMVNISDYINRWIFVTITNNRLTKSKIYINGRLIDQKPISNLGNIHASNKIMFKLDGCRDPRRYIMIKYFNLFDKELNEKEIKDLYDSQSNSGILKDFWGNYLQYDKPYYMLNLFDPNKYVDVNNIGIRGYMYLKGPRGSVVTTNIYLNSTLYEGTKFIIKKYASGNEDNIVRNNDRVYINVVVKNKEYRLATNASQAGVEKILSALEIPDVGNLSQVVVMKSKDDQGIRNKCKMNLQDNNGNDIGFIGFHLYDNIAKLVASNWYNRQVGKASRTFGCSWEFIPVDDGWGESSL
binder,measurement,value
"luminal domain (LD) of human SV2C (domain or fragment, UniProt Q496J9 456-574, looked up, also called SV2C-LD; untagged SV2C-LD; not shown: 6xHis, N-terminal, cleaved) DVIKPLQSDEYALLTRNVERDKYANFTINFTMENQIHTGMEYDNGRFIGVKFKSVTFKDSVFKSCTFEDVTSVNTYFKNCTFIDTVFDNTDFEPYKFIDSEFKNCSFFHNKTGCQITFD",binding result,binds
